In paper PMC4954732 (2016):

Target: A. fumigatus CCAAT binding complex (CBC) consisting of HapB(230-299), HapC(40-137) and HapE(47-164) (A. fumigatus)
Assay: SPR

B1: HapX(24-158) (domain or fragment)
chain: SPSPGPGTPGSITSKEWVIPPRPKPGRKPATDTPPTKRKAQNRAAQRAFRERRAARVNELEEQIKKIEDEHEIHIAAFKEQITNLSREVEQCRSEMTWWRDRCHALEKEVSVERSAKEAIVKEFRSSLSDREAVR
- Kd: 16.2 nM
